Measured values: IntAct's records for PubMed 25416956

B1: Keratin, type II cytoskeletal 6A (Homo sapiens), P02538 (parent)
chain: MASTSTTIRSHSSSRRGFSANSARLPGVSRSGFSSVSVSRSRGSGGLGGACGGAGFGSRSLYGLGGSKRISIGGGSCAISGGYGSRAGGSYGFGGAGSGFGFGGGAGIGFGLGGGAGLAGGFGGPGFPVCPPGGIQEVTVNQSLLTPLNLQIDPTIQRVRAEEREQIKTLNNKFASFIDKVRFLEQQNKVLETKWTLLQEQGTKTVRQNLEPLFEQYINNLRRQLDSIVGERGRLDSELRGMQDLVEDFKNKYEDEINKRTAAENEFVTLKKDVDAAYMNKVELQAKADTLTDEINFLRALYDAELSQMQTHISDTSVVLSMDNNRNLDLDSIIAEVKAQYEEIAQRSRAEAESWYQTKYEELQVTAGRHGDDLRNTKQEIAEINRMIQRLRSEIDHVKKQCANLQAAIADAEQRGEMALKDAKNKLEGLEDALQKAKQDLARLLKEYQELMNVKLALDVEIATYRKLLEGEECRLNGEGVGQVNISVVQSTVSSGYGGASGVGSGLGLGGGSSYSYGSGLGVGGGFSSSSGRAIGGGLSSVGGGSSTIKYTTTSSSSRKSYKH
partner: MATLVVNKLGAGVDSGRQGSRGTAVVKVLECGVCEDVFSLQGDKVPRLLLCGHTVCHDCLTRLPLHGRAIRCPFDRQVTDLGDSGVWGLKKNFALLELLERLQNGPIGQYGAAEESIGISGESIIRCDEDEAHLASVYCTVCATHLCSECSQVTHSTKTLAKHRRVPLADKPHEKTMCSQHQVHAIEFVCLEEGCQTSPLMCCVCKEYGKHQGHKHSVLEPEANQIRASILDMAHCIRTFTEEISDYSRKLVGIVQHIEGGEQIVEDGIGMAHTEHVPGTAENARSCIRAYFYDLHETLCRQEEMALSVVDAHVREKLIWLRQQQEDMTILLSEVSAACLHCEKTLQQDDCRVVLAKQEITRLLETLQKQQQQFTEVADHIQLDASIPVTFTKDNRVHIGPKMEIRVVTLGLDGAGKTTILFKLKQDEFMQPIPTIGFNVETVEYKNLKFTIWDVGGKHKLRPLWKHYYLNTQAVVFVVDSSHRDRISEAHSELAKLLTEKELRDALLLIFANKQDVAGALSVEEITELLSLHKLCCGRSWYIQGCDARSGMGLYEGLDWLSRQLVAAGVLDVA
B2: Inactive peptidyl-prolyl cis-trans isomerase FKBP6 (Homo sapiens), O75344 (parent)
chain: MGGSALNQGVLEGDDAPGQSLYERLSQRMLDISGDRGVLKDVIREGAGDLVAPDASVLVKYSGYLEHMDRPFDSNYFRKTPRLMKLGEDITLWGMELGLLSMRRGELARFLFKPNYAYGTLGCPPLIPPNTTVLFEIELLDFLDCAESDKFCALSAEQQDQFPLQKVLKVAATEREFGNYLFRQNRFYDAKVRYKRALLLLRRRSAPPEEQHLVEAAKLPVLLNLSFTYLKLDRPTIALCYGEQALIIDQKNAKALFRCGQACLLLTEYQKARDFLVRAQKEQPFNHDINNELKKLASCYRDYVDKEKEMWHRMFAPCGDGSTAGES
partner: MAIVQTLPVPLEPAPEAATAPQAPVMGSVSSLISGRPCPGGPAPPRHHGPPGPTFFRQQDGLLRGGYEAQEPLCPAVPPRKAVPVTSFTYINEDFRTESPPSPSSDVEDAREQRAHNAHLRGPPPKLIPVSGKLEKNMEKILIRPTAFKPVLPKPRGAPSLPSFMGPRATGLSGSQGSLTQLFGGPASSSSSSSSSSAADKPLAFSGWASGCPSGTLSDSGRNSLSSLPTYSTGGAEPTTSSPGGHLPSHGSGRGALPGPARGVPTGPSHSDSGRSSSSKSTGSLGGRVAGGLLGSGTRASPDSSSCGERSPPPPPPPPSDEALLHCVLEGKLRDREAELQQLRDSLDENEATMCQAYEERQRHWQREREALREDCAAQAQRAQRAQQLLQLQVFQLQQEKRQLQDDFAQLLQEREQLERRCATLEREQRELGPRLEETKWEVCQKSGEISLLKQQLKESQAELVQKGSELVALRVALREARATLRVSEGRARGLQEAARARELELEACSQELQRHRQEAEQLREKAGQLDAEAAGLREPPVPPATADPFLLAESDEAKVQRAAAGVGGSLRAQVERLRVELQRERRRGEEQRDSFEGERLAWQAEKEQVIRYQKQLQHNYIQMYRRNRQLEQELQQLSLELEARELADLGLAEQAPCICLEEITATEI
B3: Keratin, type II cytoskeletal 6A (Homo sapiens), P02538 (parent)
chain: B1 chain
partner: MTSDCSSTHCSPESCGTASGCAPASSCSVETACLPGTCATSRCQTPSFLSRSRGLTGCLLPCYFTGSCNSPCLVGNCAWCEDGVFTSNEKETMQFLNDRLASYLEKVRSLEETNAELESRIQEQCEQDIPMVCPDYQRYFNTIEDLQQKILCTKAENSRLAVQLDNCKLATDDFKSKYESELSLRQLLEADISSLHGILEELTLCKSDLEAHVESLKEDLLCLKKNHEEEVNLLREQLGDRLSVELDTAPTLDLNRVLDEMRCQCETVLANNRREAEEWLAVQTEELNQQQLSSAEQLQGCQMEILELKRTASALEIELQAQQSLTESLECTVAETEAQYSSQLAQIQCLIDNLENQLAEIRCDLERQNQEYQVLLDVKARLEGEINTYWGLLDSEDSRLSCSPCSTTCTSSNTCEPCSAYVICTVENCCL
B4: EF-hand domain-containing protein 1 (Homo sapiens), Q5JVL4 (parent)
chain: MVSNPVHGLPFLPGTSFKDSTKTAFHRSQTLSYRNGYAIVRRPTVGIGGDRLQFNQLSQAELDELASKAPVLTYGQPKQAPPADFIPAHVAFDKKVLKFDAYFQEDVPMSTEEQYRIRQVNIYYYLEDDSMSVIEPVVENSGILQGKLIKRQRLAKNDRGDHYHWKDLNRGINITIYGKTFRVVDCDQFTQVFLESQGIELNPPEKMALDPYTELRKQPLRKYVTPSDFDQLKQFLTFDKQVLRFYAIWDDTDSMYGECRTYIIHYYLMDDTVEIREVHERNDGRDPFPLLMNRQRVPKVLVENAKNFPQCVLEISDQEVLEWYTAKDFIVGKSLTILGRTFFIYDCDPFTRRYYKEKFGITDLPRIDVSKREPPPVKQELPPYNGFGLVEDSAQNCFALIPKAPKKDVIKMLVNDNKVLRYLAVLESPIPEDKDRRFVFSYFLATDMISIFEPPVRNSGIIGGKYLGRTKVVKPYSTVDNPVYYGPSDFFIGAVIEVFGHRFIILDTDEYVLKYMESNAAQYSPEALASIQNHVRKREAPAPEAESKQTEKDPGVQELEALIDTIQKQLKDHSCKDNIREAFQIYDKEASGYVDRDMFFKICESLNVPVDDSLVKELIRMCSHGEGKINYYNFVRAFSN
partner: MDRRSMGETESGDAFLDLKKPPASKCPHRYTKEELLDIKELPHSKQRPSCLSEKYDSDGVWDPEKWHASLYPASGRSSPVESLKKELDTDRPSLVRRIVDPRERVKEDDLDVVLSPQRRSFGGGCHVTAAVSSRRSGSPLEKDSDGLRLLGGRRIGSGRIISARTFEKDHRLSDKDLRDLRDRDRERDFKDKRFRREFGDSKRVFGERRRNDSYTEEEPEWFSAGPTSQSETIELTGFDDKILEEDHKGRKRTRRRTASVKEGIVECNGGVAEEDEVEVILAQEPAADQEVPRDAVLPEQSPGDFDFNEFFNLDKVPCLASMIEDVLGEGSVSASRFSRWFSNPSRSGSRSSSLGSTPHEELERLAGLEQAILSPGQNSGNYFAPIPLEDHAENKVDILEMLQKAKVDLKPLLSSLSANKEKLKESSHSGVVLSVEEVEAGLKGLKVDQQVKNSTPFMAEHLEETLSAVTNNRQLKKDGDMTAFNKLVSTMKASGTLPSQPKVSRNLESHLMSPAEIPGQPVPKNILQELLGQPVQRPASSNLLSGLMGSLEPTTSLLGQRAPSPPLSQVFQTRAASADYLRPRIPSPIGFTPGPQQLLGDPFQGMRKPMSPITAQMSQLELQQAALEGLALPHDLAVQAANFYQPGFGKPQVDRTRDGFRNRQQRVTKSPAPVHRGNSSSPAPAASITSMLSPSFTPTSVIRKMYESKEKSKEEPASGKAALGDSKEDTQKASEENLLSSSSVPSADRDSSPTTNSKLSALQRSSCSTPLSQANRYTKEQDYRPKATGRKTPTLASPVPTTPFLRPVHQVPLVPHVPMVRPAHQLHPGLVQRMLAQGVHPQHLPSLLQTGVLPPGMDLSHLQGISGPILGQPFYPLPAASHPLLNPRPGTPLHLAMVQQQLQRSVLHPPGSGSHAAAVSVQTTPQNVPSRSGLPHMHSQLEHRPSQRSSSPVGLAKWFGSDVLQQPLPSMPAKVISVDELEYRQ
B5: TERF1-interacting nuclear factor 2 (Homo sapiens), Q9BSI4 (parent)
chain: MATPLVAGPAALRFAAAASWQVVRGRCVEHFPRVLEFLRSLRAVAPGLVRYRHHERLCMGLKAKVVVELILQGRPWAQVLKALNHHFPESGPIVRDPKATKQDLRKILEAQETFYQQVKQLSEAPVDLASKLQELEQEYGEPFLAAMEKLLFEYLCQLEKALPTPQAQQLQDVLSWMQPGVSITSSLAWRQYGVDMGWLLPECSVTDSVNLAEPMEQNPPQQQRLALHNPLPKAKPGTHLPQGPSSRTHPEPLAGRHFNLAPLGRRRVQSQWASTRGGHKERPTVMLFPFRNLGSPTQVISKPESKEEHAIYTADLAMGTRAASTGKSKSPCQTLGGRALKENPVDLPATEQKENCLDCYMDPLRLSLLPPRARKPVCPPSLCSSVITIGDLVLDSDEEENGQGEGKESLENYQKTKFDTLIPTLCEYLPPSGHGAIPVSSCDCRDSSRPL

Variants of: B1
Settings: with tri23_human TRIM23, P36406

Q: With N171K as the variant, how does the “effect of a mutation on the interaction” value read?
A: Its value is “disrupting interaction”.

Variants of: B1
Settings: with tri23_human TRIM23, P36406
Remark: another data set of the same source

Q: Which “effect of a mutation on the interaction” value does the source give for A463P here?
A: The value was “disrupting interaction”.

Variants of: B2
Settings: with lzts2_human LZTS2, Q9BRK4

Q: With F72L as the variant, how does the “effect of a mutation on the interaction” value read?
A: Its value is “disrupting interaction”.

Variants of: B3
Settings: with KRT40, Q6A162

Q: How did the “effect of a mutation on the interaction” value turn out when A463P was run?
A: Its value is “disrupting interaction”.

Variants of: B3
Settings: with KRT40, Q6A162
Remark: another data set of the same source

Q: How did the “effect of a mutation on the interaction” value turn out when I462S was run?
A: The value was “disrupting interaction”.

Variants of: B4
Settings: with 4et_human EIF4ENIF1, Q9NRA8

Q: How did the “effect of a mutation on the interaction” value turn out when R221H was run?
A: Its value is “disrupting interaction”.

Variants of: B4
Settings: with 4et_human EIF4ENIF1, Q9NRA8
Remark: another data set of the same source

Q: For A394S, which “effect of a mutation on the interaction” value is on record?
A: Its value is “disrupting interaction”.

Variants of: B4
Settings: with 4et_human EIF4ENIF1, Q9NRA8
Remark: another data set of the same source

Q: How did the “effect of a mutation on the interaction” value turn out when P77T was run?
A: The value was “disrupting interaction”.

Variants of: B4
Settings: with 4et_human EIF4ENIF1, Q9NRA8
Remark: another data set of the same source

Q: For T508R, which “effect of a mutation on the interaction” value is on record?
A: The value was “disrupting interaction”.

Variants of: B5
Settings: with acd_human ACD

Q: Which “effect of a mutation on the interaction” value does the source give for P236S here?
A: Its value is “disrupting interaction”.
